Measured values from patent US20230203156A1 (WILLIAM ROBERT ARATHOON LIVING TRUST DATED AUGUST 29 2016, published 2023).

Target: human MDR1 (multidrug resistance protein 1) (human, UniProt P08183 1-1280)
Experiment: cell-based or functional assay

Row | Binder | IC50 of vincristine on N6/ADR cells with antibody [nM]
1 | B1.219 (antibody, human IgG1, V domains shown) VH: EVQLVESGGALVKPGGSLKLSCAASGFTFSNYAMSWVRQTPEKRLEWVATISSVGSYTYYPDSVKGRFTISRDNAKTTLYLQMSGLRSEDTALYYCAKYSNYGRFASWGQGTLVTVST VL: DVLMTQTPLSLPASLGDQASISCRSSQSIVHSSGNTYLEWYLQKPGQSPRLLIYKVSNRFFGVPDRISGSGSGTDFTLRISRVEAEDLGVYYCFQGSHVPYTFGGGTKLEIE | 0.0103
2 | B1.223 (antibody, human IgG1, V domains shown) VH: EVKLVESGGALVKPGGSLKLSCAASGFTFSNYAMSWVRQTPEKRLEWVATISSGGSYTYYPDSVKGRFTISRDNAKTTLYLQMSGLRSEDTALYYCAKFSNYGRFASWGQGTLVTVSS VL: DIQMIQSPLSLPVSLGDQASISCRSSQSIVHSSGNTYLEWYLQKPGQSPRLLIYKVSNRFFGVPDRISGSGSGTDFTLRISRVEAEDLGVYYCFQGSHVPYTFGGGTKLELK | 0.0068
3 | B1.178 (antibody, human IgG1, V domains shown) VH: EAQLVESGGALVKPGGSLKLSCSASGFTFSNYAMSWVRQTPEKRLEWVATISSGGTNTYYPGSVKGRFTIARDNAKNTLYLLMSSLRSEDTALYFCARYSNLAWFASWGQGTLVTVSA VL: DVVMTQTPLSLPVSLGDQASISCRSSQSIVHSNGNTYLEWYLQKPGQSPKFLISKVSNRFSGVPDRFSGSGSGTDFTLKISRVEAEDLGIYYCFQGSHVPYTFGGGTKLEIK | 0.0528
4 | B1.275 (antibody, human IgG1, V domains shown) VH: EVMLVESGGALVKPGGSLKVSCAASGFTFSNYAMSWVRQSPEMRLEWVATISSGGTNTYYPDSVKGRFTISRDNARNTLYLQMSSLRSKDTAMYYCARYSNYGWFPYWGQGTTLTVSS VL: DVVMTQTPLSLPVSLGDQASISCRSSQTIVHSDGYTYLEWYLQKPGQSPKLLIYKVSNRFSGVPDRFSGSGSGTDFTLRISRVEAEDLGVYYCFQGSHVPYTFGGGTKLEIK | 0.0781
5 | B1.207 (antibody, human IgG1, V domains shown) VH: GVQLVESGGALVKPGGSLKLSCAASGFTFSNYAMSWVRQTPEKRLEWVATISSGGSYTYYPDSVKGRFTISRDNAKTTLYLQMSGLRSEDTALYYCAKYSNYGRFASWGQGTLVTVST VL: DVLMTQTPLSLPVSLGDQASISCRSSQSIVHSSGNTYLEWYLQKPGQSPRLLIYKVSNRFFGVPDRISGSGSGTDFTLRISRVEAEDLGVYYCFQGSHVPYTFGGGTKLEIK | 0.0095
6 | B1.201 (antibody, human IgG1, V domains shown) VH: EVQLVESGGALMKPGGSLKFSCAASGFTFTNYAMSWVRQTPEKRLEWVATISSGGSNTYYSDSVKGRFTISRDNAKTTLYLQMSGLRSEDTALYYCAKFSNFGRFASWGQGTLVTVSA VL: DVLMTQTPLSLPVSLGDQASISCRFSQSIVHSSGNTYLEWYLQKPGQSPRLLIYKVSNRFFGVPDRISGSGSGTDFTLRISRVEAEDLGVYYCFQGSHVPYTFGGGTKLEIK | 0.0216
7 | B1.226 (antibody, human IgG1, V domains shown) VH: EVQLVESGGALVKPGGSLKLSCAASGFTFSNYAMSWVRQTPETRLEWVATISSGGSYTYYPDSVKGRFTISRDNAKNTLYLQMSSLRSEDTALYYCARYSNLAWFAYWGQGTLVTVSA VL: DVVMTQTPLSLPVSLGDQASISCRSSQSIVHSNGNTYLDWYLQKPGQSPKFMIYKVSNRFSGVPDRFSGSGSGTDFTLKISRVEAEDLGVYYCFQGSHVPYTFGGGTKLEIK | 0.0138
8 | B1.278 (antibody, human IgG1, V domains shown) VH: QVQLQQSGPELVKPGASVKISCKASGYSFTGYFMNWVMQSHGKSLEWIGRINPYNGDTFYNQKFKGKATLTVDKSSGTAHMELRSLASEDSAVYYCARCYYYGSSSYGMDYWGQGTSVTVSS VL: QIVLTQSPASLAVSLGQRATISCRASESVHNYGVSFMNWFQQRPGQPPKLLIHAASHQGSGVPARFTGSGSGTDFSLNIHPMEEDDIAMYFCQQSKEVPLTFGAGTKLKLK | 0.029
9 | KPA08 (antibody, V domains shown) VH: EVKVVESGGVLVRPGGSLKLSCAASGFTFSRYTMSWVRQTPEKRLEWVATISSGGGNTYYPDSVKGRFTVSRDNAMSSLYLQMSSLRSEDTALYYCARYGAGDAWFAYWGQGTLVTVSS VL: DVLMTQTPVSLSVSLGDQASISCRSSQSIVHSTGNTYLEWYLQKPGQSPKLLIYKISNRFSGVPDRFSGSGSGTDFTLKISRVEAEDLGVYYCFQASHFPRTFGGGTKLEIK | 2.93
10 | B1.27 (antibody, human IgG1, V domains shown) VH: EVKLVESGGGLVKPGGSLKLSCAASGFTFSSYTMSWVRQTPEKRLEWVATVSSGGGNTYYPDSVKGRFTISRDNAKNNLYLQMSSPRSEDTALYYCARYGNYGWFTYWGQGTLVTVSS VL: DVVMTQTPLSLPVSLGDQASISCRSSQNIVHSTGNTYLDWYLQKPGQSPKLLIYKVSNRFSGVPDRFSGSGSGTDFTLKISRVEAEDLGVYFCFQGSHIPRTFGGGTKLEIK | 2.83
11 | B1.263 (antibody, human IgG1, V domains shown) VH: EVKLVESGGGLVKPGGSLKLSCAASGFTFSNYGMSWVRQTPEKRLEWVAAISSNGAYTYFPDTVKGRFTISRDNAKNTLYLQMNSLRSEDTALYYCTRRGWDTWFAYWGQGTLVTVSS VL: DVVMTQTPLSLPVSLGDQASISCRSSQNIVHSTGNTYLEWYLQKPGQSPKLLIYKVSNRFSGVPDRFSGSGSGTDFTLKISRVEAEDLGVYYCFQGSHVPWTFGGGTKLEIK | 0.0062
12 | B1.188 (antibody, human IgG1, V domains shown) VH: EVMLVESGGALVKPGGSLKLSCAASGFTFSNYAMSWVRQTPEKRLEWVATISSGGSYTYYPDSVKGRFTISRDNARNTLYLQMSSLRSEDTAMYYCARGYGNFAWFAYWGQGTLVTVSA VL: DIQMTQSPLSLPVSLGDQASISCRSSQSIVHSTGNTYLEWYLQKPGQSPKLLIYKVSNRFSGVPDRFSGSGSGTDFTLKISRVEAEDLGVYYCFQGSHVPFTFGSGTKLEIK | 0.0929
13 | B1.89 (antibody, human IgG1, V domains shown) VH: KVQLVESGGALVKPGGSLKLSCAASGFTFSNYAMSWVRQTPEKRLEWVATISSSGSYTYFPDSVKGRFTISRDNAKNTLYLQMSSLRSEDTALYYCARYGYDEAWFASWGQGTLVTVSA VL: DVLMTQTPLSLPVSLGDQASISCRSSQTIVHSNGNTYLEWYLQKPGQSPKLLIYKVSKRFSGVPDRFSGSGSGTDFTLKISRVEAEDLGVYYCFQGSHFPRTFGGGTKLEIK | 0.0622
14 | KB1.269A (antibody, human IgG1, V domains shown) VH: EVQLVESGGASVKPGGSLKLSCAASGFTFSNYAMSWVRQTPEKRLEWVATISSGGSYTYYLDSVKGRFTISRDNAKNTLYLQMSSLRSEDTALYYCARYYVYDAWFAYWGQGTLVTVSA VL: DVVMTQTPLSLPVSLGDQASISCRSSQSIVHSTGNTYLEWYLQKPGQSPKLLIYKVSNRFSGVPDRFSGSGSGTDFTLKISRVEAEDLGVFYCFQGSHVPRTFGGGTKLEIK | 0.0323
15 | B1.217 (antibody, human IgG1, V domains shown) VH: EVQLVESGGALVKPGGSLKLSCAASGFTFSNYAMSWVRQTPEKRLEWVATISSGGSYTYYPDSVKGRFTISRDNAKNTLYLQMSSLRSEDTALYYCTKYSNYGRFAYWGQGTLVTVST VL: DVLMTQTPLSLPVSLGDQASISCRSSQSIVHSTGNTYLEWYLQKPGQSPKLLIYKVSNRFSGVPDRFSGSGSGTDFTLKISRVEAEDLGVYYCFQGSHIPYTFGGGTKLEIK | 0.0386
16 | B1.264 (antibody, human IgG1, V domains shown) VH: EVKLVESGGALVKPGGSLKLSCAASGFTFSNYAMSWVRQTPEKRLEWVATISSGGSNTYYPDSVMGRFTISRDNAKNTLYLQMSSLRSEDTALYYCARYSNYGWFAYWGQGTLVTVSS VL: DVVMTQTPLSLPVSLGDQASISCRSSQSIVHSNGNTYLEWYLQKPGQSPKLLIYKVSNRFSGVPDRFSGSGSGTDFTLKISRVEAEDLGVYYCFQGSLVPRTFGGGTKLEIK | 0.0192
17 | B1.198 (antibody, human IgG1, V domains shown) VH: EVQLVESGGALVKPGGSLKLSCAASGFTFSNYAMSWVRQTPEKRLEWVATISSGGSYTYYPDSVKGRFTISRDNAKNTLYLQMSSLRSEDTALYYCAKYSNYGRFAYWGQGTLVTVSA VL: DVVMTQTPLSLPVSLGDQASISCRSSQSIVDSNGNTYLEWYLQKPGQSPKLLIYKVSNRFFGVPDRFSGSGSGTDFTLKISRVEAEDLGVYYCFQGSHVPYTFGGGTKLEIK | 0.0167
18 | B1.225 (antibody, human IgG1, V domains shown) VH: EVQLVESGGALVKPGGSLKLSCAASGFTFSNYGMSWVRQTPEKRLEWVATISSGGSYTYYPDTVKGRFTISRDNAKNTLHLQMSSLRSEDTALYYCARRGTNDAWFGYWGQGTLVTVSA VL: DVVMTQTPLSLPVSLGDQASISCRFSQSIVHSNGNTYLEWYLQKPGQSPKLLIYKVSNRFFGVPDRFSGSGSGTDFTLKISRVEAEDLGVYFCFQGSHVPQYTFGGGTKLEIK | 0.0035
19 | B1.276 (antibody, human IgG1, V domains shown) VH: EVKLVESGGALVKPGGSLKLSCAASGFTFRNYAMSWVRQTPEKRLEWVATISSDGSYTYHPDSVKGRFTISRDNARNTLYLQMSSLRSEDTAMYSCTRQGNWGRTWFTYWGQGTLVTVSS VL: QIVLTQSPAIMSASPGEKVTMTCRASSSVSSSYLHWYQQKSGASPKLWIYSTSSLASGVPARFSGSGSGTSYSLTISSVEAEDAATYYCQQYSGYPLTFGAGTKLELK | 0.029
20 | KB1.273A (antibody, human IgG1, V domains shown) VH: QVQLQQSGPELVKTGASVKISCKASGYSFSNYYIHWVKQSHGKSLEWIGFISCYNGATFYNQKFKGKATFTVDTSSSTAYMKFNSLTFEDSAVYYCARLPIQFGNFYPMDYWGQGTSVTVSS VL: QIVLTQSPAIMSASLGERVTMTCTASSSVSSSYLHWYQQKPGSSPKLWIYSTSNLASGVPARFSGSGSGTSYSLTISSMEAEDAATYYCHQYHRSPPTFGAGTKLELK | 0.0299
